Measurements as given in patent publication US20240084023A1 (NGM BIOPHARMACEUTICALS, published 2024).
Where a chain is given by its changes, count along the chain named. One block for each binder: values may come before it.

Assays:
[1] = biological target: full-length human GCGR on CHO cells (human, UniProt P47871 26-477); experiment: cell-based or functional assay
[2] = biological target: T1, soluble human GCGR extracellular domain (human, UniProt P47871 26-136, limits assumed); experiment: Biacore SPR, captured antibody, soluble human GCGR extracellular domain as analyte
T1 construct: also called soluble GCGR
T1 sequence (P47871 26-136 limits assumed): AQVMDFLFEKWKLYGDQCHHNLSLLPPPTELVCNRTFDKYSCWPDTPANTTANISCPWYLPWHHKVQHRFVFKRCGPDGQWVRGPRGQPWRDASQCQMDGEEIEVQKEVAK
Protocol: In some experiments, supernatants were screened for binding to human GCGR using a Biacore SPR system. Briefly, anti-mouse Fc antibody (Sigma-Aldrich) was immobilized on all four flow cells of a CM5 chip using amine coupling reagents (GE Healthcare LifeSciences). Hybridoma supernatants were diluted three-fold with PBS-P buffer (PBS containing 0.005% P20) and injected for 30 seconds overflow cells 2, 3 and 4 to capture the test antibodies and using flow cell 1 as a reference. The next step was an injection of soluble human GCGR extracellular domain (100 nM in PBS-P buffer) at a flow rate of 50 μL/min and monitoring of the binding kinetics at 25° C. Kinetic data were collected over time and fit using the simultaneous global fit equation to yield affinity constants (KD values) for each antibody.

[3] = biological target: T1, soluble human GCGR extracellular domain; experiment: Octet epitope binning; antibody in solution on GCGR ECD held by immobilized 1A2 (competitor)
Protocol: (§1) KD values for exemplary antibodies were derived using ForteBio software. Exemplary antibodies 6B5, 13G19, 14E9, 14F4, 4F8, 1G7, l A8, I H7, 1A2, 1B4, 1C1, 1H2, 1C3, and 1D2 were immobilized on biosensor tips. Soluble human GCGR extracellular domain (500 nM) was incubated with the antibodies for 3 minutes. […] The biosensor tips with bound antibody-GCGR complex were then dipped in 61B5, 5B11, or 3H-15 antibody solution and the change in signal measured as a nm shift. If the antibody in solution recognized the same epitope as the antibody immobilized on the chip surface, then <0.1 nm shift in signal (noise level of Octet) would be observed. If the antibody in solution recognized a distinct epitope relative to the immobilized antibody, an increase in signal of >0.15 nm shift would be observed. In the latter scenario, the antibody in solution could bind to the immobilized antibody-GCGR complex (presumably to a different epitope) resulting in the observed increase in signal.

[4] = biological target: T1, soluble human GCGR extracellular domain; experiment: Octet epitope binning; antibody in solution on GCGR ECD held by immobilized 1A8 (competitor)
Protocol: as §1

[5] = biological target: T1, soluble human GCGR extracellular domain; experiment: Octet epitope binning; antibody in solution on GCGR ECD held by immobilized 1B4 (competitor)
Protocol: as §1

[6] = biological target: T1, soluble human GCGR extracellular domain; experiment: Octet epitope binning; antibody in solution on GCGR ECD held by immobilized 1C1 (competitor)
Protocol: as §1

[7] = biological target: T1, soluble human GCGR extracellular domain; experiment: Octet epitope binning; antibody in solution on GCGR ECD held by immobilized 1C3 (competitor)
Protocol: as §1

[8] = biological target: T1, soluble human GCGR extracellular domain; experiment: Octet epitope binning; antibody in solution on GCGR ECD held by immobilized 1D2 (competitor)
Protocol: as §1

[9] = biological target: T1, soluble human GCGR extracellular domain; experiment: Octet epitope binning; antibody in solution on GCGR ECD held by immobilized 1G7 (competitor)
Protocol: as §1

[10] = biological target: T1, soluble human GCGR extracellular domain; experiment: Octet epitope binning; antibody in solution on GCGR ECD held by immobilized 1H2 (competitor)
Protocol: as §1

[11] = biological target: T1, soluble human GCGR extracellular domain; experiment: Octet epitope binning; antibody in solution on GCGR ECD held by immobilized 1H7 (competitor)
Protocol: as §1

[12] = biological target: T1, soluble human GCGR extracellular domain; experiment: Octet epitope binning; antibody in solution on GCGR ECD held by immobilized 4F8 (competitor)
Protocol: as §1

[13] = biological target: T1, soluble human GCGR extracellular domain; experiment: Octet epitope binning; antibody in solution on GCGR ECD held by immobilized 6B5 (competitor)
Protocol: as §1

[14] = biological target: T1, soluble human GCGR extracellular domain; experiment: Octet epitope binning; antibody in solution on GCGR ECD held by immobilized 13G9 (competitor)
Protocol: as §1

[15] = biological target: T1, soluble human GCGR extracellular domain; experiment: Octet epitope binning; antibody in solution on GCGR ECD held by immobilized 14E9 (competitor)
Protocol: as §1

[16] = biological target: T1, soluble human GCGR extracellular domain; experiment: Octet epitope binning; antibody in solution on GCGR ECD held by immobilized 14F4 (competitor)
Protocol: as §1

full-length human GCGR on CHO cells, sequence (P47871 26-477): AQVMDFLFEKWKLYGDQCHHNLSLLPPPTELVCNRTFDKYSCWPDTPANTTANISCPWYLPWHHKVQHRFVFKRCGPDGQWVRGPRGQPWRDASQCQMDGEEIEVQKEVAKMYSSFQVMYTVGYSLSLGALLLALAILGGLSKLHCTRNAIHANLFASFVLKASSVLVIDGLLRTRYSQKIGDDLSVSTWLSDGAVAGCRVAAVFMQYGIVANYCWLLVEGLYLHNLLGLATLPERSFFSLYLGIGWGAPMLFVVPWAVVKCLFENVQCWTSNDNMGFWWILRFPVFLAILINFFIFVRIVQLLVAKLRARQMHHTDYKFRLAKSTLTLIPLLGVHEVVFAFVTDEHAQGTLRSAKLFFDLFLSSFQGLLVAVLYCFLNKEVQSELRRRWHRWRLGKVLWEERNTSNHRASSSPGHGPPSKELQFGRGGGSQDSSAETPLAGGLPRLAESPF

B2: anti-GCGR antibody 3H5 (antibody, V domains shown)
VH: QVQLQQSGAELVKPGASVRLSCKASGNTFTNYWMHWVKQRPGQGLEWIGMIHPNSGSTHYNEKFKNKATLTVDKSSNTAYMQLSGLTSEDSAVYYCGATADYVMDYWGQGTSVTVSS
VL: DIVLTQTPLSLPVNIGDQASISCKSTKSLLNSDGFTYLDWYLQKPGQSPQLLINLVSNRFSGVPDRFSGSGSGTEFILKISRVEAEDLGVYYCFQSNFLPLTFGAGTKLELK
notes: mouse hybridoma monoclonal antibody; also called 3H-15
- cAMP assay-1 IC50 [1]: 24.6 nM
- Kd [2]: 2.2 nM
- Shift on Octet by Antibody in Solution (nm) [3]: < 0.05 nm
- Shift on Octet by Antibody in Solution (nm) [4]: < 0.05 nm
- Shift on Octet by Antibody in Solution (nm) [5]: < 0.05 nm
- Shift on Octet by Antibody in Solution (nm) [6]: < 0.05 nm
- Shift on Octet by Antibody in Solution (nm) [7]: < 0.05 nm
- Shift on Octet by Antibody in Solution (nm) [8]: < 0.05 nm
- Shift on Octet by Antibody in Solution (nm) [9]: < 0.05 nm
- Shift on Octet by Antibody in Solution (nm) [10]: < 0.05 nm
- Shift on Octet by Antibody in Solution (nm) [11]: < 0.05 nm
- Shift on Octet by Antibody in Solution (nm) [12]: < 0.05 nm
- Shift on Octet by Antibody in Solution (nm) [13]: < 0.05 nm
- Shift on Octet by Antibody in Solution (nm) [14]: < 0.05 nm
- Shift on Octet by Antibody in Solution (nm) [15]: < 0.05 nm
- Shift on Octet by Antibody in Solution (nm) [16]: < 0.05 nm

B3: anti-GCGR antibody 1C3 (antibody, V domains shown)
VH: EVQLQQSGPELVKPGASVKMSCKASGYTFTSSVMHWVKQKPGQALEWIGYINPYNDGTKYNENFKGKATLTSDRSSTTAYMELSSLTSEDSAVYYCVTGAGYDRGPMAMDYWGQGTSVTVSS
VL: NIVLTQSPASLAVSLGQRATISCRASESVDSYGDSFVHWYQQKPGQPPKLLIYFASNLESGVPARFSGSGSRTDFTLTIDPVEADDTATYYCQQNNEVPFTFGSGTKLELK
notes: mouse hybridoma monoclonal antibody
- cAMP assay-1 IC50 [1]: 6.42 nM
- cAMP assay-2 IC50 [1]: 13.6 nM
- Kd [2]: 1.4 nM

B6: anti-GCGR antibody 4F8 (antibody, V domains shown)
VH: QVQLQQSGAELVRPGTSVTMSCKAAGYTFSNYWIGWVKQRPGHGLEWIGDIYPGGFYDNYNDKFKGKATLTTDTSSSTAYMQLSSLTSEDSAIYYCTRSGGLPGAGFTYWGQGTLVTVSA
VL: DVLMTQTPLSLPVSLGDQASISCRSSQHIVYSDGNTYLEWYLQKPGQSPKLLIYKVSNRFSGVPDRFSGSGSGTDFTLEISRVEAEDLGVYYCFQGSHVPWTFGGGTKLEIK
notes: as for B3
- cAMP assay-3 IC50 [1]: 3.84 nM
- Kd [2]: 0.5 nM

B8: anti-GCGR antibody 1C1 (antibody, V domains shown)
VH: EVQLQQSGPELVKPGATVKMSCKASGYTFTRNVIHWVKQKPGQGLEWIGYINPYNDGAKYNAKFKGKATVTSDKSSSTAYMELSSLTSEDSAVYYCARWGNYEDFAMDYWGQGTSVTVSS
VL: NIVLTQSPPSLAVSLGQRATISCRASESVDIYGNSYMHWYQQKPGQPPKLLIYLASNLESGVPARFSGSGSRTEFSLTIDPVEAGDAATYYCQQNNEDPFTFGGGTKLEIK
notes: as for B3
- cAMP assay-2 IC50 [1]: 14.3 nM
- Kd [2]: 1.9 nM

B9: anti-GCGR antibody 1H2 (antibody, V domains shown)
VH: QVQLQQPGAELVKPGASVKMSCKVSGYTFTSYWITWVKQRPGQGLEWIGDIHPGGGDTNYNKKFKSKATLTVDTSSSTAYMQLSSLTSEDSAVYHCTSDDNYVGFTYWGQGTLVTVSA
VL: B6 VL with H28T, V30I, Y31H, K50I, E79K
notes: as for B3
- cAMP assay-1 IC50 [1]: 3.78 nM
- Kd [2]: 3.7 nM

Second part, the binder after the results:

- cAMP assay-1 IC50 [1]: 7.22 nM
- Kd [2]: 1.2 nM
- Shift on Octet by Antibody in Solution (nm) [3]: < 0.05 nm
- Shift on Octet by Antibody in Solution (nm) [4]: < 0.05 nm
- Shift on Octet by Antibody in Solution (nm) [5]: < 0.05 nm
- Shift on Octet by Antibody in Solution (nm) [6]: < 0.05 nm
- Shift on Octet by Antibody in Solution (nm) [7]: < 0.05 nm
- Shift on Octet by Antibody in Solution (nm) [8]: < 0.05 nm
- Shift on Octet by Antibody in Solution (nm) [9]: < 0.05 nm
- Shift on Octet by Antibody in Solution (nm) [10]: < 0.05 nm
- Shift on Octet by Antibody in Solution (nm) [11]: < 0.05 nm
- Shift on Octet by Antibody in Solution (nm) [12]: < 0.05 nm
- Shift on Octet by Antibody in Solution (nm) [13]: < 0.05 nm
- Shift on Octet by Antibody in Solution (nm) [14]: < 0.05 nm
- Shift on Octet by Antibody in Solution (nm) [15]: < 0.05 nm
- Shift on Octet by Antibody in Solution (nm) [16]: < 0.05 nm
B1: anti-GCGR antibody 5B11 (antibody, V domains shown)
VH: QVQLQQSGAELVKPGASVKLSCKASGNTFTSHWMHWVKQRPGQGLEWIGMSHPNSGSSNYSGKFKSKATLTVDRSSSTAYMQLNSLTSEDSAVYYCARTDYDYDGDYWGQGTTLTVSS
VL: B2 VL with I2V, T26S, F35L, N54Y, E75D, I77T, E86D
notes: as for B3

- cAMP assay-1 IC50 [1]: 6.42 nM
- cAMP assay-2 IC50 [1]: 12.3 nM
- cAMP assay-3 IC50 [1]: 2.07 nM
- Kd [2]: 0.22 nM
- Shift on Octet by Antibody in Solution (nm) [3]: < 0.05 nm
- Shift on Octet by Antibody in Solution (nm) [4]: < 0.05 nm
- Shift on Octet by Antibody in Solution (nm) [5]: < 0.05 nm
- Shift on Octet by Antibody in Solution (nm) [6]: < 0.05 nm
- Shift on Octet by Antibody in Solution (nm) [7]: < 0.05 nm
- Shift on Octet by Antibody in Solution (nm) [8]: < 0.05 nm
- Shift on Octet by Antibody in Solution (nm) [9]: < 0.05 nm
- Shift on Octet by Antibody in Solution (nm) [10]: < 0.05 nm
- Shift on Octet by Antibody in Solution (nm) [11]: < 0.05 nm
- Shift on Octet by Antibody in Solution (nm) [12]: < 0.05 nm
- Shift on Octet by Antibody in Solution (nm) [13]: < 0.05 nm
- Shift on Octet by Antibody in Solution (nm) [14]: < 0.05 nm
- Shift on Octet by Antibody in Solution (nm) [15]: < 0.05 nm
- Shift on Octet by Antibody in Solution (nm) [16]: < 0.05 nm
B4: anti-GCGR antibody 6B5 (antibody, V domains shown)
VH: QVQLQQSGTELVRPGTSVKISCKASGFTFTNHWLGWVKQRPGHGLEWIGDIYPGGYYINYNEKFKGKATLTADTSSSTAYMQLSSLTSEDSAVYFCARHTNYGSDYWGQGTTLTVSS
VL: B6 VL with T7I, H28S, Y31D, D33Y, Y37F, F60L, S70T, S72A, E79K, V90I
notes: mouse hybridoma monoclonal antibody; also called 61B5

- cAMP assay-1 IC50 [1]: 16 nM
- cAMP assay-3 IC50 [1]: 6.48 nM
- Kd [2]: 0.57 nM
B5: anti-GCGR antibody 14F4 (antibody, V domains shown)
VH: QVQLQQSGAELVRPGTSVNMSCKATGYTFTNYWIGWVKQRPGHGLEWIGDIFPGGFYSNYNEKFKGKATLTTDTSSSTGYMQLSSLTSEDSAIYYCARIWDRGFDYWGQGTTLTVSS
VL: B6 VL with T7S, H28S, Y31D, D33Y, E79K, L88R, V90L, W101Y
notes: mouse hybridoma monoclonal antibody; also called 141F4

- cAMP assay-1 IC50 [1]: 24.6 nM
- cAMP assay-3 IC50 [1]: 1.32 nM
- Kd [2]: 0.8 nM
B7: anti-GCGR antibody 14E9 (antibody, V domains shown)
VH: QVQLQQSGAELVRPGTSVKMSCKAAGYTFTNYWIGWVKQRPGHGLEWIGDISPGNYYTNYNAKFKDKVSLTADTSSSTAYMQLSSLTSEDSAIYYCARYDEFAYWGQGTLVTVSA
VL: B6 VL with P12S, H28S, Y31H, E79K
notes: mouse hybridoma monoclonal antibody; also called 13E9

- cAMP assay-1 IC50 [1]: 7.22 nM
- cAMP assay-3 IC50 [1]: 0.99 nM
- Kd [2]: 0.25 nM
B10: anti-GCGR antibody 13G9 (antibody, V domains shown)
VH: QVQLQQSGAELVRPGTSVKISCKASGYTFTNYWLGWVKQRPGHGLEWIGDIYPGGDYNNYNGKFKGKATLTADTSSSTAYIQLSSLTSEDSAVYFCVRSDDGYSWGQGTTLTVSS
VL: B6 VL with H28S, Y31D, D33Y, L42Q, K50T, S61A, E79K, V99I, L109V
notes: mouse hybridoma monoclonal antibody; also called 13G19
